The values below come from publication PMC4155688, “Mapping the Putative G Protein-coupled Receptor (GPCR) Docking Site on GPCR Kinase 2” (The Journal of Biological Chemistry, 2014).

The chains are these.
B1: RlucII-GRK2 (wild type) [human] / α2AAR-GFP^2 [not stated] (parent)
chain 1: MADLEAVLADVSYLMAMEKSKATPAARASKKILLPEPSIRSVMQKYLEDRGEVTFEKIFSQKLGYLLFRDFCLNHLEEARPLVEFYEEIKKYEKLETEEERVARSREIFDSYIMKELLACSHPFSKSATEHVQGHLGKKQVPPDLFQPYIEEICQNLRGDVFQKFIESDKFTRFCQWKNVELNIHLTMNDFSVHRIIGRGGFGEVYGCRKADTGKMYAMKCLDKKRIKMKQGETLALNERIMLSLVSTGDCPFIVCMSYAFHTPDKLSFILDLMNGGDLHYHLSQHGVFSEADMRFYAAEIILGLEHMHNRFVVYRDLKPANILLDEHGHVRISDLGLACDFSKKKPHASVGTHGYMAPEVLQKGVAYDSSADWFSLGCMLFKLLRGHSPFRQHKTKDKHEIDRMTLTMAVELPDSFSPELRSLLEGLLQRDVNRRLGCLGRGAQEVKESPFFRSLDWQMVFLQKYPPPLIPPRGEVNAADAFDIGSFDEEDTKGIKLLDSDQELYRNFPLTISERWQQEVAETVFDTINAETDRLEARKKAKNKQLGHEEDYALGKDCIMHGYMSKMGNPFLTQWQRRYFYLFPNRLEWRGEGEAPQSLLTMEEIQSVEETQIKERKCLLLKIRGGKQFILQCDSDPELVQWKKELRDAYREAQQLVQRVPKMKNKPRSPVVELSKVPLVQRGSANGL
chain 2: MFRQEQPLAEGSFAPMGSLQPDAGNASWNGTEAPGGGARATPYSLQVTLTLVCLAGLLMLLTVFGNVLVIIAVFTSRALKAPQNLFLVSLASADILVATLVIPFSLANEVMGYWYFGKAWCEIYLALDVLFCTSSIVHLCAISLDRYWSITQAIEYNLKRTPRRIKAIIITVWVISAVISFPPLISIEKKGGGGGPQPAEPRCEINDQKWYVISSCIGSFFAPCLIMILVYVRIYQIAKRRTRVPPSRRGPDAVAAPPGGTERRPNGLGPERSAGPGGAEAEPLPTQLNGAPGEPAPAGPRDTDALDLEESSSSDHAERPPGPRRPERGPRGKGKARASQVKPGDSLPRRGPGATGIGTPAAGPGEERVGAAKASRWRGRQNREKRFTFVLAVVIGVFVVCWFPFFFTYTLTAVGCSVPRTLFKFFFWFGYCNSSLNPVIYTIFNHDFRRAFKKILCRGDRKRIV

In one assay the parent is B1. Kind of assay: BRET. Conditions: with α2AAR-GFP^2; HEK293T cells; 100 μm NOR for 6 min; read off a plot.
chain 1 D10R: the response came out at 0.041. Turning to chain 1 D10A, the response is 0.026. Turning to chain 1 D3A, the response was determined as 0.026. As for chain 1 A482I, the response came out at 0.059. On to chain 1 G475I, for which the response is 0.016.

As to chain 1 D481A, the response is 0.049. For chain 1 E18A, the response amounted to 0.05. On the same count and under the same terms, as for chain 1 M15A, the figure is 0.027; as for chain 1 K220R, 0.032. The same measure, in the same setting: the result for chain 1 I485A reads 0.018; that for chain 1 P473E, 0.033.

The variants in another assay derive from B1. Put plainly: BRET dose-response. Conditions: with α2AAR-GFP^2; HEK293T cells; point at highest NOR concentration, log [NOR] = -3; read off a plot.
Take chain 1 K220R: the response was found to be 0.031.
